{
  "source": "paper PMC7305169",
  "about": "“High flavivirus structural plasticity demonstrated by a non-spherical morphological variant” (Nature Communications, 2020)",
  "binders": {"B1": {"name": "Fab C10 (Fab, V domains shown)", "VH": "EVQLVESGAEVKKPGASVKVSCKASGYTFTSYAMHWVRQAPGQRLEWMGWINAGNGNTKYSQKFQDRVTITRDTSASTAYMELSSLRSEDTAIYYCARDKVDDYGDYWFPTLWYFDYWGQGTLVTVS", "VL": "ALTQPASVSGSPGQSITISCTGTSSDVGGFNYVSWFQQHPGKAPKLMLYDVTSRPSGVSSRFSGSKSGNTASLTISGLQAEDEADYYCSSHTSRGTWVFGGGTKLTVL", "notes": "Only the variable regions of the Fab were fitted into the maps; also called antibody C10; Fab fragment of antibody C10; source: monoclonal antibody C10 obtained from Gavin Screaton; Fab made from IgG with papain conjugated resins, purified (anion-exchange, gel filtration)"}},
  "target": "T1, ZIKV envelope (E) protein, strain H/PF/2013, on purified virus particles (Zika virus (ZIKV-H/PF/2013))",
  "T1 construct": "envelope (E) protein of Zika virus strain H/PF/2013, cut product of the viral polyprotein, membrane-anchored on the virus particle; the entire E protein with its transmembrane regions was fitted; Stood on whole virus particles (catSP after 37 °C with Fab C10) together with the M protein and the lipid membrane",
  "assay": "cryoEM micrographs and 2D averages; Fab mixed with purified virus at a molar ratio of 1.5 Fab to E protein; Fab added before exposure to 37 °C (DENV3-CH53489, ZIKV) or after the virus was incubated at 37 °C (DENV3-CH53489); binding seen as spiky surface and Fab density in 2D averages",
  "settings": "both partners purified",
  "data": [
    {"binder": "B1", "values": [
      {"measurement": "binding result", "value": "binds"}
    ]}
  ]
}
